Assay results from patent US20240254190A1 (published 2024).
Numbering of substitutions follows the chain as printed.

Assays:
Experiment in all cases: cytokine release
[1] = target: T1, p53 C135Y peptide on HLA-DPA1*01:03 / HLA-DPB1*11:01 (human)
T1 peptide: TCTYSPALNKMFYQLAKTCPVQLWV

[2] = target: T2, p53 C135Y peptide on HLA-DQA1*01:01 / HLA-DQB1*02:01 (human)
T2 peptide: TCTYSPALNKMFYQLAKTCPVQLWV

[3] = target: T3, p53 C135Y peptide on HLA-DQA1*02:01 / HLA-DQB1*02:01 (human)
T3 peptide: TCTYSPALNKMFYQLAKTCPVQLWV

[4] = target: T4, p53 C135Y peptide on HLA-DRA*01:01 / HLA-DRB1*07:01 (human)
T4 peptide: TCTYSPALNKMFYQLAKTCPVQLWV

[5] = target: T5, p53 C135Y peptide on HLA-DQA1*01:01 / HLA-DQB1*02:02 (human)
T5 peptide: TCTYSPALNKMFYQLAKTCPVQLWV

[6] = target: T6, p53 C135Y peptide on HLA-DQA1*02:01 / HLA-DQB1*02:02 (human)
T6 peptide: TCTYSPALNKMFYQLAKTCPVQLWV

[7] = target: T7, p53 C135Y peptide on HLA-DQA*01:01 / HLA-DRB4*01:01 (human)
T7 peptide: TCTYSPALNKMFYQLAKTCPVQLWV

[8] = target: T8, p53 C135Y peptide on HLA-DPA1*02:01 / HLA-DPB1*02:01 (human)
T8 peptide: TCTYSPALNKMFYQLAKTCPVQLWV

[9] = target: T9, p53 C135Y peptide on HLA-DQA1*02:01 / HLA-DQB1*05:01 (human)
T9 peptide: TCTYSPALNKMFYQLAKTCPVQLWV

[10] = target: T10, p53 wild type peptide on HLA-DRA*01:01 / HLA-DRB1*07:01 (human)
T10 peptide: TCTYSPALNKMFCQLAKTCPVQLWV

[11] = target: T11, p53 C135Y peptide on HLA-DPA1*02:01 / HLA-DPB1*11:01 (human)
T11 peptide: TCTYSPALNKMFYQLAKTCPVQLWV

[12] = target: T12, p53 C135Y peptide on HLA-DPA1*01:03 / HLA-DPB1*02:01 (human)
T12 peptide: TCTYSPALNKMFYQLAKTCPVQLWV

[13] = target: T13, p53 C135Y peptide on HLA-DQA1*01:01 / HLA-DQB1*05:01 (human)
T13 peptide: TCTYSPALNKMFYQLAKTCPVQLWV

[14] = target: T14, p53 C135Y peptide on HLA-DRA*01:01 / HLA-DRB3*01:01 (human)
T14 peptide: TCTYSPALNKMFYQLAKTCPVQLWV

[15] = target: T15, p53 R175H peptide on HLA-C*04:01 (human)
T15 peptide: HMTEVVRHC

[16] = target: T16, p53 R175H peptide on HLA-C*07:01 (human)
T16 peptide: HMTEVVRHC

[17] = target: T17, p53 R175H peptide on HLA-B*08:01 (human)
T17 peptide: HMTEVVRHC

[18] = target: T18, p53 R175H peptide on HLA-A*23:01 (human)
T18 peptide: HMTEVVRHC

[19] = target: T19, p53 R175H peptide on HLA-B*44:03 (human)
T19 peptide: HMTEVVRHC

[20] = target: T20, p53 wild type peptide on HLA-A*02:01 (human)
T20 peptide: HMTEVVRRC

[21] = target: T21, p53 wild type peptide on HLA-DRA*01:01 / HLA-DRB1*01:01 (human)
T21 peptide: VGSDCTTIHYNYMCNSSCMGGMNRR

B1: 4316-D TCR (TCR, V domains shown)
Valpha: QQVMQIPQYQHVQEGEDFTTYCNSSTTLSNIQWYKQRPGGHPVFLIQLVKSGEVKKQKRLTFQFGEAKKNSSLHITATQTTDVGTYFCAESYSGGYQKVTFGIGTKLQVIP
Vbeta: EPEVTQTPSHQVTQMGQEVILRCVPISNHLYFYWYRQILGQKVEFLVSFYNNEISEKSEIFDDQFSVERPDGSNFTLKIRSTKLEDSAMYFCASSSFSNEQFFGPGTRLTVL
B1: no recognition [1]; no recognition [2]; no recognition [3]. B1: recognises [4]; no recognition [5]; no recognition [6]. B1: no recognition [7]; no recognition [8]; no recognition [9]. B1: no recognition [10]; no recognition [11]; no recognition [12]. B1: no recognition [13]; no recognition [14].

B2: 4141 IVS TCR (TCR, V domains shown)
Valpha: QTVTQSQPEMSVQEAETVTLSCTYDTSENNYYLFWYKQPPSRQMILVIRQEAYKQQNATENRFSVNFQKAAKSFSLKISDSQLGDTAMYFCAFMAYMEYGNKLVFGAGTILRVKS
Vbeta: B1 Vbeta with S94C, S95K, S96G, F97I, S98T, N99D, E100T, F102Y
B2: no recognition [15]; no recognition [16]; no recognition [17]. B2: no recognition [18]; no recognition [19]; no recognition [20].

B3: 4304 TCR-K (TCR, V domains shown)
Valpha: KDQVFQPSTVASSEGAVVEIFCNHSVSNAYNFFWYLHFPGCAPRLLVKGSKPSQQGRYNMTYERFSSSLLILQVREADAAVYYCAVSGYQLIWGAGTKLIIKP
Vbeta: GVAQSPRYKIIEKRQSVAFWCNPISGHATLYWYQQILGQGPKLLIQFQNNGVVDDSQLPKDRFSAERLKGVDSTLKIQPAKLEDSAVYLCASSLDRRGGRETQYFGPGTRLLVL
B3: no recognition [21].

B4: 4304 TCR-4 (TCR, V domains shown)
Valpha: QKEVEQNSGPLSVPEGAIASLNCTYSDRGSQSFFWYRQYSGKSPELIMFIYSNGDKEDGRFTAQLNKASQYVSLLIRDSQPSDSATYLCAVRGGNTGFQKLVFGTGTRLLVSP
Vbeta: AVISQKPSRDICQRGTSLTIQCQVDSQVTMMFWYRQQPGQSLTLIATANQGSEATYESGFVIDKFPISRPNLTFSTLTVSNMSPEDSSIYLCSVRSEDTQYFGPGTRLTVL
B4: no recognition [21].

B5: 4304 TCR-2 (TCR, V domains shown)
Valpha: QSVSQHNHHVILSEAASLELGCNYSYGGTVNLFWYVQYPGQHLQLLLKYFSGDPLVKGIKGFEAEFIKSKFSFNLRKPSVQWSDTAEYFCAVTFMDTGRRALTFGSGTRLQVQP
Vbeta: GVSQSPSNKVTEKGKDVELRCDPISGHTALYWYRQSLGQGLEFLIYFQGNSAPDKSGLPSDRFSAERTGGSVSTLTIQRTQQEDSAVYLCASSPRGGDYEQYFGPGTRLTVT
B5: no recognition [21].
